Patent publication US11559589B2, “Compositions and methods for detection and modulation of T cell mediated immune responses against viral vectors utilized for gene therapy” (The Children's Hospital of Philadelphia, priority 2006, dated 2023)
Where two headings read alike, the source gives them in different places.

Key:
[1] = target: T1, AAV-2 capsid (AAV-p74 peptide) peptide on HLA-B*07:02 (human); experiment: multimer staining
T1 peptide: VPQYGYLTL

[2] = target: MHC molecules displaying the AAV peptide epitopes on Malme-3 fibroblasts (UniProt P01889+P03135)
Method: AAV-scTCR multimer was tested in vitro using a normal human fibroblast cell line positive for HLA-B*0702 (Malme-3 available from the ATCC repository). Cells were peptide loaded with AAV capsid epitopes at a concentration of 10 ug/ml for 2 hrs at 37° C. and then stained with the AAV-scTCR multimer (FIG. 10); alternatively, cells were transduced with an AAV vector at an MOI of 5×10^5 or 1×10^6 and stained 24 or 48 hours later (FIG. 11).

[3] = test system: lymph node cells and splenocytes from HLA-B*0702 transgenic mice; experiment: AAV-scTCR multimer staining of cells from HLA-B*0702 transgenic mice after intravenous AAV vector; assay type: cell-based
Excerpt: FIGS. 12A and 12B are a pair of histograms swing AAV-scTCR multimer staining of CD11c+CD19-cells collected from HLA B*0702 mice one week after intravenous infusion of 1E11 vector genomes (vg) of AAV.

[4] = target: AAV-p74 peptide/HLA-B7 complexes on cell surface of JyA2B7 cells (UniProt P01889+P03135); details: for minimum AAV-p74 peptide loading concentration stained: 0.5 μg multimer
AAV-p74 peptide/HLA-B7 complexes on cell surface of JyA2B7 cells, sequence (P61769 21-119): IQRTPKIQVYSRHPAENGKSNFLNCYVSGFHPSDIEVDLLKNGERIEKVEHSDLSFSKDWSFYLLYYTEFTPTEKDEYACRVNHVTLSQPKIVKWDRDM
AAV-p74 peptide/HLA-B7 complexes on cell surface of JyA2B7 cells, sequence (P01889 25-362): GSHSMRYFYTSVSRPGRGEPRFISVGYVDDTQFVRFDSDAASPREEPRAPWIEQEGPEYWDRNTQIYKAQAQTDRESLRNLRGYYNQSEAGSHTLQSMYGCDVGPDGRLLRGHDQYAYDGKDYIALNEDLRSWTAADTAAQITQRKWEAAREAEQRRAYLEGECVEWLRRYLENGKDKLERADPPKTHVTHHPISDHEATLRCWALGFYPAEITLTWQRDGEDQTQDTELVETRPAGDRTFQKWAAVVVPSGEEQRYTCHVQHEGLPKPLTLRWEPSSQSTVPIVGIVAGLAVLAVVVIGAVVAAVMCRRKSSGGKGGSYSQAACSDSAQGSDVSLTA
Excerpt: AAV-p74 peptide loaded HLA-B7-positive human lymphoblastoid cell line (JyA2B7) was used to determine whether AAV-a-scTCR can bind to AAV-p74 peptide/HLA-B7 complexes on cell surface.

MHC molecules displaying the AAV peptide epitopes on Malme-3 fibroblasts, sequence (P61769 21-119): as the sequence (P61769 21-119) above
MHC molecules displaying the AAV peptide epitopes on Malme-3 fibroblasts, sequence (P01889 25-362): as the sequence (P01889 25-362) above

Molecule	binding result [1]	staining of peptide-loaded fibroblasts ([2]; AAV capsid epitopes 10 ug/ml, 2 hrs, 37° C.)	staining of AAV-transduced fibroblasts ([2]; AAV vector MOI 5×10^5 or 1×10^6, stained 24 or 48 hours later)	staining of lymph node cells and splenocytes [3]	minimum AAV-p74 peptide loading concentration stained ([4]; PLE added during loading) [µg/mL]	minimum AAV-p74 peptide loading concentration stained ([4]; typical conditions) [µg/mL]	staining of JyA2B7 cells ([4]; cells loaded with 50 μg/ml AAV-p74 peptide, 0.025 μg/test multimer)
AAV-b-scTCR-BirA (TCR, V domains shown) Valpha: TQLLEQSPQFLSIQEGENLTVYCNSSSVFSSLQWYRQEPGEGPVLLVTVVTGGEVKKLKRLTFQFGDARKDSSLHITAAQPGDTGLYLCAGKKTNDYKLSFGAGTTVTVRA Vbeta: ETGVTQTPRHLVMGMTNKESLKCEQHLGHNAMYWYKQSAKKPLELMFVYSLEERVENNSVPSRFSPECPNSSHLFLHLHTLQPEDSALYLCASSQDRVNLAGEQYFGPGTRLTVT	recognises						
AAV-a-AJ31 (TCR, V domains shown) Valpha: SQQGEEDPQALSIQEGENATMNCSYKTSINNLQWYRQNSGRGLVHLILIRSNEREKHSGRLRVTLDTSKKSSSLLITASRAADTASYFCATLYNARLMFGDGTQLVVKP Vbeta: NAGVTQTPKFRVLKTGQSMTLLCAQDMNHEYMYWYRQDPGMGLRLIHYSVGEGTTAKGEVPDGYNVSRLKKQNFLLGLESAAPSQTSVYFCASRSGSAGAFFGQGTRLTVV	recognises						
p74-scTCR multimer: PE-conjugated multimer generated from biotinylated AAV-a-AJ31 scTCR-BirA fusion protein (protein, left off: things letters cannot carry; a dimerising Fc or GST; small tags and cut ends, PE-conjugated multimer generated from biotinylated AAV-a-AJ31 scTCR-BirA fusion protein) alpha: SQQGEEDPQALSIQEGENATMNCSYKTSINNLQWYRQNSGRGLVHLILIRSNEREKHSGRLRVTLDTSKKSSSLLITASRAADTASYFCATLYNARLMFGDGTQLVVKP beta: NAGVTQTPKFRVLKTGQSMTLLCAQDMNHEYMYWYRQDPGMGLRLIHYSVGEGTTAKGEVPDGYNVSRLKKQNFLLGLESAAPSQTSVYFCASRSGSAGAFFGQGTRLTVV		positive staining	positive staining	positive staining	1	5	Specific staining
